Measured values from the supplement of paper PMC9170038.

Tested on: MS2 coat protein
Test: apparent KD of MS2 coat protein; designed switch direction (-1 OFF switch, 1 ON switch): -1; higher = weaker reporter binding
Method in brief: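 RNA switches sharing common flanks were transcribed by stalled E. coli RNA polymerase on Illumina chips. A doubling series of SNAP-549-labelled MS2 coat protein, from 0.7 or 1.5 nM to 3 µM, was applied in Tris-HCl pH 7.5 buffer with KCl, MgCl2, BSA, DTT, tRNA and Tween-20. Each step lasted 0.8–1.5 h at the bottom of the series and 10–20 min at the top. Normalised cluster fluorescence was curve-fitted, giving apparent KD as the per-design median over clusters.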

[1] = Eterna round: R95, input ligand: FMN 200 uM
[2] = Eterna round: R95, input ligand: microRNA oligo, concentration not stated
[3] = Eterna round: R95, input ligand: none
[4] = input ligand: microRNA oligo, concentration not stated

GGAAGGAGAGGAUAUGAGGGAGAGAACAUGAGGAUCACCCAUGUGAGACCUCAGGAUCGAUCAGAAGGCUCAGUCC [AK-MS2ROC-r4-exclusion5-12] (Eterna round: R97, puzzle: Exclusion 5)
apparent KD of MS2 coat protein (input ligand: FMN 200 uM): 692 nM
apparent KD of MS2 coat protein (input ligand: none): 232 nM

GGAAGGUGAGGAUAUACUAAGCCGGAAACGGCAGGUGGGAGACAUGAGGAUCACCCAUGUAGAAGGCACGGAGA [AK-MS2ROC-r4-exclusion2-18] (Eterna round: R97, puzzle: Exclusion 2)
apparent KD of MS2 coat protein (input ligand: FMN 200 uM): 703 nM
apparent KD of MS2 coat protein (input ligand: none): 113 nM

GGAAUACAUGAGGAUCACCCAUGUAAGGAUAUGCUGAAUAUCACGGAAUAAACGUGCAGCAGAAGGUACAAAGG [Mat - Mod of my Eli Mod D46] (puzzle: Exclusion 1)
apparent KD of MS2 coat protein [1]: 103 nM
apparent KD of MS2 coat protein [2]: 65.9 nM
apparent KD of MS2 coat protein [3]: 93.6 nM

GGACAUUCGGUAAGGAUAUUGACCCAACCUAGGAUCAAGAAGGUACAUGAGGAUCACCCAUGUCAGAUCCGUCA [Eternabot (Original) Solution 34] (Eterna round: R97, puzzle: Brourd's mod of Exclusion 4)
apparent KD of MS2 coat protein (input ligand: FMN 200 uM): 27.4 nM
apparent KD of MS2 coat protein (input ligand: none): 16 nM

GGACCGCGGCAAGGAUAUCUUUGUCAACAUAAAACAUGAGGAUCACCCAUGUGCAUCUUCGUGUGAGAGAAGGUGCGGCAGUCC [Isisgeri] (Eterna round: R96, puzzle: Exclusion NG 2)
apparent KD of MS2 coat protein (input ligand: FMN 200 uM): 222 nM
apparent KD of MS2 coat protein [4]: 113 nM
apparent KD of MS2 coat protein (input ligand: none): 127 nM

GGAGCAAUGGAGGAUAUCAGGAGCGCUGCUUACUGAGAAGGCCGUACAUGAGGAUCACCCAUGUCUGGGUACGC [Eternabot (L1) Solution 21] (Eterna round: R97, puzzle: Exclusion 6)
apparent KD of MS2 coat protein (input ligand: FMN 200 uM): 176 nM
apparent KD of MS2 coat protein (input ligand: none): 167 nM

GGAGGAGAGGUUAGGAUAUCCUCCUCGAAAGAGGAGGAGAAGGAACAUGAGGAUCACCCAUGUAAGGAAGGAGG [AK-MS2ROC-r4-Bmoexclusion4-10] (Eterna round: R97, puzzle: Brourd's mod of Exclusion 4)
apparent KD of MS2 coat protein (input ligand: FMN 200 uM): 27.1 nM
apparent KD of MS2 coat protein (input ligand: none): 37 nM

GGAUAAAAGGCAGGAUAUACGUAUCACUAACGAGUAGAAGGGCCACAUGAGGAUCACCCAUGUGAGUUCUCAAUAAGAAACACG [Prohibition 63 - Jieux - Exclusion NG 1] (Eterna round: R96, puzzle: Exclusion NG 1)
apparent KD of MS2 coat protein (input ligand: FMN 200 uM): 15.3 nM
apparent KD of MS2 coat protein [4]: 10.7 nM
apparent KD of MS2 coat protein (input ligand: none): 14.2 nM

GGAUAGUGAGGAUAUCGAUGUUAGGAGGAUGAGGUAGGAUGCGAGAAGGCACAUGAGGAUCACCCAUGUAUGGU [JR_Exclu4_Sub070] (puzzle: Exclusion 4)
apparent KD of MS2 coat protein [2]: 38.4 nM

GGAUAUAAGUCAGGAUAUGAGCGCAACUGACGAUCAGAAGGGACACAUGAGGAUCACCCAUGUGAUCUAUCAAUAUUAUACAUG [Prohibition 93 - Jieux - Exclusion NG 1] (Eterna round: R96, puzzle: Exclusion NG 1)
apparent KD of MS2 coat protein (input ligand: FMN 200 uM): 29.1 nM
apparent KD of MS2 coat protein [4]: 19 nM
apparent KD of MS2 coat protein (input ligand: none): 22.4 nM

GGAUCGAGAGUGAGGAUAUGCUGGUCCUUGGAUCAGCAGAAGGCACAUGAGGAUCACCCAUGUGAUUCCGAUCC [Mat - Exclusion 4 - Eli Mod - D39] (Eterna round: R97, puzzle: Brourd's mod of Exclusion 4)
apparent KD of MS2 coat protein (input ligand: FMN 200 uM): 399 nM
apparent KD of MS2 coat protein (input ligand: none): 40.6 nM

GGAUCGAGUGUGAGGAUAUGCAGGUCCUUGGAUCUGCAGAAGGCACAUGAGGAUCACCCAUGUGGAGACGGUCC [Mat - Exclusion 4 - JL Mod - D75] (puzzle: Brourd's mod of Exclusion 4)
apparent KD of MS2 coat protein [1]: 406 nM
apparent KD of MS2 coat protein [2]: 64.2 nM
apparent KD of MS2 coat protein [3]: 110 nM

GGAUCGAGUGUGAGGAUAUGCUGGUCCUUGGAUCAGCAGAAGGCACAUGAGGAUCACCCAUGUGAAAACGGUCC [Mat - Exclusion 4 - JL Mod - D70] (puzzle: Brourd's mod of Exclusion 4)
apparent KD of MS2 coat protein [2]: 22.7 nM

GGAUCGAUAGUGAGGAUAUACCACUGGAUACAGUGGUAGAAGGCACAUGAGGAUCACCCAUGUCCUAACGAUCC [Fiskers BMX 4 - 49] (puzzle: Brourd's mod of Exclusion 4)
apparent KD of MS2 coat protein [2]: 17.6 nM

GGCACACAUGAGGAUCACCCAUGUGAGGAUAUGCUGCGAUCGUCGUAAGACGAUAGCAGUAGAAGGCACAUGCC [Mat - Exclusion 1 - Eli Mod - D8] (Eterna round: R97, puzzle: Exclusion 1)
apparent KD of MS2 coat protein (input ligand: FMN 200 uM): 22.9 nM
apparent KD of MS2 coat protein (input ligand: none): 20.5 nM

GGCACACAUGAGGAUCACCCAUGUGAGGAUAUGGUGCGAUCGUCGAUAGACGAUAGCACCAGAAGGCACAUGCC [Mat - Exclusion 1 - Eli Mod - D5] (Eterna round: R97, puzzle: Exclusion 1)
apparent KD of MS2 coat protein (input ligand: FMN 200 uM): 33.6 nM
apparent KD of MS2 coat protein (input ligand: none): 15.4 nM

GGCAUGCAAGGAUAUACUUACGGUGGUGUUCGAAGCUUUCUACUUGAGGAUCACCCAAGUAGAAGGUGCAUGCC [jl-ex2.4.74 ViennaUCT mod] (Eterna round: R97, puzzle: Exclusion 2)
apparent KD of MS2 coat protein (input ligand: FMN 200 uM): 18.7 nM
apparent KD of MS2 coat protein (input ligand: none): 23.7 nM

GGCAUGUGAGGAUAUGUACCUGAGUGCUUUGCGCUCAGGAAACAGAAGGCACAUGAGGAUCACCCAUGUGAAAU [jl-ex4-4.48 ViennaUCT mod] (Eterna round: R97, puzzle: Exclusion 4)
apparent KD of MS2 coat protein (input ligand: FMN 200 uM): 96.8 nM
apparent KD of MS2 coat protein (input ligand: none): 251 nM

GGCCUACGAGGAUAUCGCUAGCGGGACAUGAGGAUCACCCAUGUGUCGGACCGCGUCAUGCGAGAAGGUGUAAUGA [Ribeceve] (puzzle: Exclusion 5)
apparent KD of MS2 coat protein [2]: 14.9 nM

GGCGAAGUAGGAUAUACAUGAGGAUCACCCAUGUUACCUGAUGGCGUAGGUCUUCUAUGUAGAAGGGCUACGCC [jl-ex3-4.36 ViennaUCT mod] (Eterna round: R97, puzzle: Exclusion 3)
apparent KD of MS2 coat protein (input ligand: FMN 200 uM): 16.9 nM
apparent KD of MS2 coat protein (input ligand: none): 16.9 nM

GGCUAGUCAGGAUAUACGAACAUGUCAAAAGACGUGAAGGGACAUGAGGAUCACCCAUGUAGAAGGGACUAGCC [salish99_ex2_r3_004] (Eterna round: R96, puzzle: Exclusion 2)
apparent KD of MS2 coat protein (input ligand: FMN 200 uM): 181 nM
apparent KD of MS2 coat protein [4]: 21.9 nM
apparent KD of MS2 coat protein (input ligand: none): 27.5 nM

GGCUAGUCAGGAUAUACGAACAUGUCAAAAGACGUGAAGGGACAUGAGGAUCACCCAUGUAGAAGGGACUAGCC [salish99_ex2_r3_004] (puzzle: Exclusion 2)
apparent KD of MS2 coat protein [2]: 21.8 nM

GGCUAGUCAGGAUAUACGAACAUGUCAAAAGACGUGAAGGGACAUGAGGAUCACCCAUGUAGAAGGGACUAGCU [salish99_ex2_r3_003] (puzzle: Exclusion 2)
apparent KD of MS2 coat protein [2]: 27.9 nM

GGCUGCAAUGUAGGAUAUCUGCACGAUUAGUGCAGAGAAGGACAUGAGGAUCACCCAUGUAUAGUAGCUUCGGCUACAGCAGCC [ENG1-D1] (Eterna round: R96, puzzle: Exclusion NG 1)
apparent KD of MS2 coat protein (input ligand: FMN 200 uM): 17.1 nM
apparent KD of MS2 coat protein [4]: 14.2 nM
apparent KD of MS2 coat protein (input ligand: none): 15.6 nM

GGCUUACAUGAGGAUCACCCAUGUCAGGAUAUAGAACGAUGGCGGAACGCCAUCGCCGCUAGAAGGGACCGGUG [Eternabot (Original) Solution 25] (Eterna round: R97, puzzle: Exclusion 1)
apparent KD of MS2 coat protein (input ligand: FMN 200 uM): 142 nM
apparent KD of MS2 coat protein (input ligand: none): 78 nM

GGCUUGUAAGGAUAUGCGAAGGGAAGGAGAGGGACAGAGAAGCAGAAGGUACAUGAGGAUCACCCAUGUAAGGG [AK-MS2ROC-r4-exclusion4-7] (Eterna round: R97, puzzle: Exclusion 4)
apparent KD of MS2 coat protein (input ligand: FMN 200 uM): 247 nM
apparent KD of MS2 coat protein (input ligand: none): 94.9 nM

GGGAUGUCAGGAUAUGAUUAGCACGGCGGUAGCCGCGUUACUUAGAAGGGACAUGAGGAUCACCCAUGUACCGA [EX4 B.6] (Eterna round: R97, puzzle: Exclusion 4)
apparent KD of MS2 coat protein (input ligand: FMN 200 uM): 18.6 nM
apparent KD of MS2 coat protein (input ligand: none): 16.9 nM

GGGCCCGGAGGAUAUACAUGAGGAUCACCCAUGUAGGGCCCGGGUAUUCCCGGGCCCUGUAGAAGGUUGGGCCC [-44, -41.2 kcal, A 19%, 0,5c] (Eterna round: R97, puzzle: Exclusion 3)
apparent KD of MS2 coat protein (input ligand: FMN 200 uM): 17.8 nM
apparent KD of MS2 coat protein (input ligand: none): 15.8 nM

GGGCCGGCCGGAGGAUAUGCGGCCCGGCCGGCCGGUGGGCCGGCCGGGACAUGAGGAUCACCCAUGUAGAAGGCCGGCCGGCCC [low energy, MS2 in another position, A 14%] (Eterna round: R96, puzzle: Exclusion NG 2)
apparent KD of MS2 coat protein (input ligand: FMN 200 uM): 18.8 nM
apparent KD of MS2 coat protein [4]: 13.7 nM
apparent KD of MS2 coat protein (input ligand: none): 15.9 nM

GGGCGUGAAGGAUAUACAUGAGGAUCACCCAUGUGGGAGGAGAGUGGUGAGGAGGCUGGUAGAAGGUCAGGAUG [JR_Exclusion3_Sub007] (puzzle: Exclusion 3)
apparent KD of MS2 coat protein [2]: 42.6 nM

GGGUAACAUGAGGAUCACCCAUGUGAGGAUAUUCUAGGGAUGGAAGCUCGGCCGGCCAGGAGAAGGUACUAAAG [Janelle Amethyst 18 Mod 20 - Jieux - Exclusion 1] (Eterna round: R96, puzzle: Exclusion 1)
apparent KD of MS2 coat protein (input ligand: FMN 200 uM): 62 nM
apparent KD of MS2 coat protein [4]: 29.6 nM
apparent KD of MS2 coat protein (input ligand: none): 48.2 nM
